Assay results as given in US20050142568.

Tests used:
His6CPS-6, Q95NM6 = biological target: T1, His6CPS-6, Q95NM6
T1 chain: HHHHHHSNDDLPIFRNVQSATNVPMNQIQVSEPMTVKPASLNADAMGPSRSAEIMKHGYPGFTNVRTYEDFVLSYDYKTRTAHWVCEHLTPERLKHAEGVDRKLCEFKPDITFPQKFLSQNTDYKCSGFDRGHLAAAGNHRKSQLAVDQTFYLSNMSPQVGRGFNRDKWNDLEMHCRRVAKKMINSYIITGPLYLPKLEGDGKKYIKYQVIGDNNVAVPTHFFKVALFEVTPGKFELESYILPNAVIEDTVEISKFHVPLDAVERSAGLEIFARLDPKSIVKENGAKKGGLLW

[1] = biological target: T2, ^35S-Methionine labeled CRN-1, Q9N3T2
T2 chain: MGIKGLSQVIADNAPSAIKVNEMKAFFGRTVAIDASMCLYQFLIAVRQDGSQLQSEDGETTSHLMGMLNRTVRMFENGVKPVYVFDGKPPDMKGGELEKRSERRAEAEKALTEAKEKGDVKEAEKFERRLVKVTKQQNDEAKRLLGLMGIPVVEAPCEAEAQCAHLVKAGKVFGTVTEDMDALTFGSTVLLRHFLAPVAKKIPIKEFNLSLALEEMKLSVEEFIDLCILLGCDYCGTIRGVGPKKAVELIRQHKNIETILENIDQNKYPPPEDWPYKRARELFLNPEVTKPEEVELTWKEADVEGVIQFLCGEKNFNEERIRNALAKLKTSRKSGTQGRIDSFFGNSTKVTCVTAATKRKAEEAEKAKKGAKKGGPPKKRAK

B1: CRN-1(DY-AA) (protein)
chain: MGIKGLSQVIADNAPSAIKVNEMKAFFGRTVAIDASMCLYQFLIAVRQDGSQLQSEDGETTSHLMGMLNRTVRMFENGVKPVYVFDGKPPDMKGGELEKRSERRAEAEKALTEAKEKGDVKEAEKFERRLVKVTKQQNDEAKRLLGLMGIPVVEAPCEAEAQCAHLVKAGKVFGTVTEDMDALTFGSTVLLRHFLAPVAKKIPIKEFNLSLALEEMKLSVEEFIDLCILLGCAACGTIRGVGPKKAVELIRQHKNIETILENIDQNKYPPPEDWPYKRARELFLNPEVTKPEEVELTWKEADVEGVIQFLCGEKNFNEERIRNALAKLKTSRKSGTQGRIDSFFGNSTKVTCVTAATKRKAEEAEKAKKGAKKGGPPKKRAK
- CPS-6 nuclease activity (plasmid cleavage assay) (His6CPS-6, Q95NM6): continuing enhancement of CPS-6 nuclease activity, though less potently than the wild type CRN-1 protein

B2: full-length ^35S-methionine labeled CPS-6 (protein)
chain: MIGKVAGTAAIAGISFLAGKYSNDDLPIFRNVQSATNVPMNQIQVSEPMTVKPASLNADAMGPSRSAEIMKHGYPGFTNVRTYEDFVLSYDYKTRTAHWVCEHLTPERLKHAEGVDRKLCEFKPDITFPQKFLSQNTDYKCSGFDRGHLAAAGNHRKSQLAVDQTFYLSNMSPQVGRGFNRDKWNDLEMHCRRVAKKMINSYIITGPLYLPKLEGDGKKYIKYQVIGDNNVAVPTHFFKVALFEVTPGKFELESYILPNAVIEDTVEISKFHVPLDAVERSAGLEIFARLDPKSIVKENGAKKGGLLW
- gap-dependent endonuclease activity of CRN-1 [1]: it enhanced the gap-dependent endonuclease activity of CRN-1 by more than 200%

B3: CRN-1-His6 (protein)
chain: MGIKGLSQVIADNAPSAIKVNEMKAFFGRTVAIDASMCLYQFLIAVRQDGSQLQSEDGETTSHLMGMLNRTVRMFENGVKPVYVFDGKPPDMKGGELEKRSERRAEAEKALTEAKEKGDVKEAEKFERRLVKVTKQQNDEAKRLLGLMGIPVVEAPCEAEAQCAHLVKAGKVFGTVTEDMDALTFGSTVLLRHFLAPVAKKIPIKEFNLSLALEEMKLSVEEFIDLCILLGCDYCGTIRGVGPKKAVELIRQHKNIETILENIDQNKYPPPEDWPYKRARELFLNPEVTKPEEVELTWKEADVEGVIQFLCGEKNFNEERIRNALAKLKTSRKSGTQGRIDSFFGNSTKVTCVTAATKRKAEEAEKAKKGAKKGGPPKKRAKHHHHHH
- nuclease activity (plasmid cleavage assay) (His6CPS-6, Q95NM6): complete plasmid degradation and approximately 500% increase in nuclease activity
